Data taken from paper PMC10117725, “From an Hsp90 - binding protein to a peptide drug” (microLife, 2022).

Target: T1, recombinant Hsp90α (human, UniProt P07900 1-732)
T1 construct: source: bought: Abcam (recombinant)
Assay: far-Western, overlay or dot blot
Settings: both partners purified

Binder	binding result
NTRTAKGHYFVTTFYRNG (source: synthetic peptide (Apeptide, Shanghai; purity >95%)) [L10]	binds
GHYFVTTFY (source: synthetic peptide (Apeptide, Shanghai; purity >95%)) [L13]	binds
TAKGHYFVTTFYRNG (source: synthetic peptide (Apeptide, Shanghai; purity >95%)) [L15]	binds
NYKIEMKNNKIILLD (source: synthetic peptide (Apeptide, Shanghai; purity >95%)) [L16]	binds
ENFKFFGQYANLKELRK (source: synthetic peptide (Apeptide, Shanghai; purity >95%)) [L21]	binds
L26 (source: synthetic peptide (Apeptide, Shanghai; purity >95%)) peptide: DEIVKELRSRYNISTEKSPILKMHIDGDLKGSSVGYRKLEIDFSKRENSKLSVIEFLSYKPAKK	binds
